In US5998142:

Columns and labels:
[1] = target: bradykinin, N-bromoacetylated (BrBK) (UniProt P01042); details: 5'-GMPS (5' guanosine monophosphorothioate)
[2] = target: T1, neutrophil elastase (hNE) (Homo sapiens) (UniProt P08246); test: inhibition
T1 sequence: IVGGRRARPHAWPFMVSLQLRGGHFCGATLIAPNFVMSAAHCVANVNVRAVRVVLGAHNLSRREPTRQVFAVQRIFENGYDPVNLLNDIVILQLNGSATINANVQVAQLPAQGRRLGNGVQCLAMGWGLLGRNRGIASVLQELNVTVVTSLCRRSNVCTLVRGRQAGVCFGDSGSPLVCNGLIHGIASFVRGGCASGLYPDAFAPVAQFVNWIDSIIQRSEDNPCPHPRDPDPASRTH

bradykinin, N-bromoacetylated (BrBK), sequence (P01042 whole entry, looked up): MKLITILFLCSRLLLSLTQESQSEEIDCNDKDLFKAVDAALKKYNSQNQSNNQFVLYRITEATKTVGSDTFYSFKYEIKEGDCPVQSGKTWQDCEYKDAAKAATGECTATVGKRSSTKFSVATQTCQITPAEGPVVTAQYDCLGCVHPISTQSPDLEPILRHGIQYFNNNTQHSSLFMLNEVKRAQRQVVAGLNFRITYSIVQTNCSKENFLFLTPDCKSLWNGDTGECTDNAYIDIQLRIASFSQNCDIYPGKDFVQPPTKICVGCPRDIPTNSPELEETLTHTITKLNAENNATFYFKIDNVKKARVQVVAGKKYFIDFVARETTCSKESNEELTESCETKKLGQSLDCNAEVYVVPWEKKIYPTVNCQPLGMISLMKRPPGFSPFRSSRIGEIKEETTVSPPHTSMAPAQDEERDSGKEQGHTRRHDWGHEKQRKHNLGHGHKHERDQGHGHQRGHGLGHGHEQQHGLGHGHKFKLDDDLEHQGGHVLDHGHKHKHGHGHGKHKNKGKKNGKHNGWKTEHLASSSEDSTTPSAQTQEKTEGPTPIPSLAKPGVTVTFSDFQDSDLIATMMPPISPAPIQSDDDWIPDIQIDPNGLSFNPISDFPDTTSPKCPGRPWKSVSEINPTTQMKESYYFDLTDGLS

GGGAGCUCAGAAUAAACGCUCAANNNNNNNNNNNNNNNNNNNNNNNNNNNNNNUUCGACAUGAGGCCCGGAUCCGGC [30N1 pool]
K half [1]: 13 mM

GGGAGGACGATGCGGACCACAGCCACTAGNNGCATCGTCCTCTGCGTCCAGACGACGAGCGGGA [ED21]
activity ([2]; kinact/KI, room temperature): 3.2e+06 M⁻¹ min⁻¹

GGGAGGACGATGCGGCAGNNGGNNCAGGTAATGTGAGTAACCTCTACTACTCTGCAGACGACGAGCGGGA [ED15]
activity ([2]; kinact/KI, room temperature): 4.8e+08 M⁻¹ min⁻¹

GGGAGGACGAUGCGGNNNNNNNNNNNNNNNNNNNNNNNNNNNNNNNNNNNNNNNNCAGACGACGAGCGGGA [40N7.1 rd0 RNA:DNA:valP]
activity ([2]; 2'-NH2 U and C, kinact/[I], unit not given, pool, 37 C): 290000

GGGAGGACGAUGCGGNNNNNNNNNNNNNNNNNNNNNNNNNNNNNNNNNNNNNNNNCAGACGACGAGCGGGA [40N7.1 ssDNA pool]
activity ([2]; kinact/KI, pool, room temperature): 1.86e+06 M⁻¹ min⁻¹
